Reference: patent US20080249606A1 (published 2008)

Key:
[1] = target: T1, Blocking Reagent (catalogue number 11112589001, Roche Diagnostics) immobilized in ELISA wells; assay: ELISA, Blocking Reagent on Nunc Immobilizer Amino plate
T1 construct: One molecule for all four plate types; The plate is named under assay in each row

[2] = target: T1, Blocking Reagent (catalogue number …); assay: ELISA, Blocking Reagent on Greiner Microlon high-binding plate
[3] = target: T2, BSA incubated overnight with dextran sulphate 500,000 Da (DXS500k) (bovine, UniProt P02769 25-607); assay: ELISA, protein/DXS500k mixture immobilized on Greiner Microlon plate, tPA in 10 mM εACA, detection with antibody 374b
T2 construct: Same protein as m3, misfolded by contact with DXS500k (a non-protein polymer present in the mixture); also called BSA with DXS500k; DXS500k-protein mixture
T2 sequence (P02769 25-607 limits assumed): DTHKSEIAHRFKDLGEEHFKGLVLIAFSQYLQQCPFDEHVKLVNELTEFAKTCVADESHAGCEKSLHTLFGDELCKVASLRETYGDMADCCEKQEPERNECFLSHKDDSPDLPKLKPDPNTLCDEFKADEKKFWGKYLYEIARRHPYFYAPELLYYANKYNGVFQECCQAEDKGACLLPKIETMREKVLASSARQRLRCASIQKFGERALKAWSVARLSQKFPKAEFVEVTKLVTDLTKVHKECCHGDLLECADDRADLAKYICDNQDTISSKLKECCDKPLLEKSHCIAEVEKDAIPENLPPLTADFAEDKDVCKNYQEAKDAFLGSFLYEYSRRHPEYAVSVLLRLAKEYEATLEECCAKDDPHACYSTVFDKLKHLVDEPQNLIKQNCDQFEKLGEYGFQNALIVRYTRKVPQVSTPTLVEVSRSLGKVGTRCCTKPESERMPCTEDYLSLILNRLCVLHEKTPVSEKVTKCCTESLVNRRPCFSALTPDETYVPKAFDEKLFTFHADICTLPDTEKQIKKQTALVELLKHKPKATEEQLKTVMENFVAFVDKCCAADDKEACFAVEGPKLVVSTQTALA

[4] = target: T1, Blocking Reagent (catalogue number …); assay: ELISA, Blocking Reagent on Costar 9102 plate, tPA concentration series in PBS pH 7.3 with 10 mM εACA
[5] = target: T1, Blocking Reagent (catalogue number …); assay: ELISA, Blocking Reagent on Costar 9102 plate (second experiment, FIG. 2M)
[6] = target: T1, Blocking Reagent (catalogue number …); assay: ELISA, Blocking Reagent on Costar 2595 plate

Kd [1]: 39 nM
Kd [2]: 23000 nM
factor of increase of tPA binding against the protein incubated with buffer only [3]: 1.3 fold
Kd [4]: 0.6 nM
Kd [5]: ~0.5 nM
Kd [6]: 30 nM
B1: tissue-type plasminogen activator (tPA, Actilyse, Boehringer-Ingelheim) (enzyme, UniProt P00750 36-562, looked up)
chain: SYQVICRDEKTQMIYQQHQSWLRPVLRSNRVEYCWCNSGRAQCHSVPVKSCSEPRCFNGGTCQQALYFSDFVCQCPEGFAGKCCEIDTRATCYEDQGISYRGTWSTAESGAECTNWNSSALAQKPYSGRRPDAIRLGLGNHNYCRNPDRDSKPWCYVFKAGKYSSEFCSTPACSEGNSDCYFGNGSAYRGTHSLTESGASCLPWNSMILIGKVYTAQNPSAQALGLGKHNYCRNPDGDAKPWCHVLKNRRLTWEYCDVPSCSTCGLRQYSQPQFRIKGGLFADIASHPWQAAIFAKHRRSPGERFLCGGILISSCWILSAAHCFQERFPPHHLTVILGRTYRVVPGEEEQKFEVEKYIVHKEFDDDTYDNDIALLQLKSDSSRCAQESSVVRTVCLPPADLQLPDWTECELSGYGKHEALSPFYSERLKEAHVRLYPSSRCTSQHLLNRTVTDNMLCAGDTRSGGPQANLHDACQGDSGGPLVCLNDGRMTLVGIISWGLGCGQKDVPGVYTKVTNYLDWIRDNMRP
notes: Bought drug product
